The values below come from US20210317225A1 (Genmab, published 2021).

Experiment [1] addresses T1, Human CD137 shuffle 5 (amino acids 48-88 replaced by African elephant CD137) (human, amino acids 48-88 from African …, UniProt Q07011 24-255).
T1 construct: also called shuffle construct 5
T1 chain: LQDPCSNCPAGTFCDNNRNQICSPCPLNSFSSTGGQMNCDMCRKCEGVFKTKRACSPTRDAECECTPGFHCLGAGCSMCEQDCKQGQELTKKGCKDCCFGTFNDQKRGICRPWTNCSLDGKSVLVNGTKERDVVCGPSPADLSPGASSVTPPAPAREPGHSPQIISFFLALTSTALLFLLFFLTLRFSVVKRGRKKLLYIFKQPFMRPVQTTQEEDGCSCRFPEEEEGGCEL
The experiment can be described thus: flow cytometry on transfected HEK293T-17 cells, 1 µg/mL antibody. Here is the method:
(§1) 3×10⁶ HEK293T-17 cells were seeded in T75 culture flasks (Greiner Bio-One, cat. no. 658175) in 20 mL RPMI 1640 GlutaMAX medium containing 10% FCS (Biochrom, cat. no. S 0115). After O/N incubation, cells were transiently […] with expression vectors encoding the shuffle constructs or the wild boar, African elephant or human CD137 downstream of a constitutively active human elongation factor-1 alpha (EF-1 alpha) promotor using TransIT®-LT1 Transfection Reagent, Mirus Bio (VWR International, cat. no. 731-0029), according to the manufacturer's instructions. The next day, cells were harvested using 1.5 mL Accutase (Sigma Aldrich, cat. no. A6964) (incubation at 37° C. for 5 min.) and flow cytometry was performed, essentially as described in Example 4, to measure surface expression of the shuffle constructs and the human, African elephant and wild boar CD137 and to measure binding of the antibody clones to the different shuffle constructs. To measure cell surface expression of the constructs, transduced cells were incubated with 1 μg/mL goat polyclonal anti-human CD137 (R&D Systems, cat. no. AF838) in FACS buffer (D-PBS supplemented with 5 mM EDTA [Sigma Aldrich, cat. no. 03690] and 5% (v/v) fetal bovine serum [FBS, Biochrom, cat. no. S 0115]) (4° C., 20 min.), followed by incubation with APC-labeled anti-goat IgG (H+L) (R&D Systems, cat. no. F0108) (4° C., 20 min.). Binding of the different CD137 antibody clones to cells expressing the shuffle constructs was measured by incubation of the transduced cells with 1 μg/mL of the antibody clones, followed by APC-labeled AffiniPure F(ab′)2 Fragment (1:50 final dilution; Jackson, cat. no. 109-136-127).
A general note: Flow cytometry measures light scatter and fluorescence of single cells or particles in a stream.

Experiment [2] addresses T2, Human CD137 shuffle 1 (amino acids 162-186 replaced by wild boar CD137) (human, amino acids 162-186 from wild …, UniProt Q07011 24-255).
T2 construct: also called shuffle construct 1
T2 chain: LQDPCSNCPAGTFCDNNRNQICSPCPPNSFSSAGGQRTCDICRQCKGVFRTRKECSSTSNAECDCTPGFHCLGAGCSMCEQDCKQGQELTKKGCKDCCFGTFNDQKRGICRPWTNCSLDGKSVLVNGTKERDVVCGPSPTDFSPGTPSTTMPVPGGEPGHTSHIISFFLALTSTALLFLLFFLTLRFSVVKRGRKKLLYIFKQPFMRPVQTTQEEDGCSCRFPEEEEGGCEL
Described as above. Here is the method:
as §1

In experiment [3] the target is T3, Human CD137 shuffle 3 (amino acids 115-138 replaced by wild boar CD137) (human, amino acids 115-138 from wild …, UniProt Q07011 24-255).
T3 construct: also called shuffle construct 3
T3 chain: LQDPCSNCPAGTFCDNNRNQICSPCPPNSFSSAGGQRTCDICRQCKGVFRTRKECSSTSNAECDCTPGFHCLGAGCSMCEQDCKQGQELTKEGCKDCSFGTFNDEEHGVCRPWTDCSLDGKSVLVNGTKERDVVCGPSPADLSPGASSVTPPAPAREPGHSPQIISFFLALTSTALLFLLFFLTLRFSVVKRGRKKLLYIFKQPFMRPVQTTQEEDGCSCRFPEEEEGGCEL
The description is as above. Here is the method:
as §1

Experiment [4] concerns the target T4, Human CD137 shuffle 4 (amino acids 89-114 replaced by wild boar CD137) (human, amino acids 89-114 from wild boar, UniProt Q07011 24-255).
T4 construct: also called shuffle construct 4
T4 chain: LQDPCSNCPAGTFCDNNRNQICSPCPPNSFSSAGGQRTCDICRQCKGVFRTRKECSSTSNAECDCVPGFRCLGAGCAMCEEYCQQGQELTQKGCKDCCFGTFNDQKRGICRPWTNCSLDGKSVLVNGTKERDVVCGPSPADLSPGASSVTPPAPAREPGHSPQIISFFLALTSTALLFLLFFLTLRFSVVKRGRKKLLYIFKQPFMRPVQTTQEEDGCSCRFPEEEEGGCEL
The description is as above. Here is the method:
as §1

Experiment [5] addresses T5, Human CD137 shuffle 2 (amino acids 139-161 replaced by wild boar CD137) (human, amino acids 139-161 from wild …, UniProt Q07011 24-255).
T5 construct: also called shuffle construct 2
T5 chain: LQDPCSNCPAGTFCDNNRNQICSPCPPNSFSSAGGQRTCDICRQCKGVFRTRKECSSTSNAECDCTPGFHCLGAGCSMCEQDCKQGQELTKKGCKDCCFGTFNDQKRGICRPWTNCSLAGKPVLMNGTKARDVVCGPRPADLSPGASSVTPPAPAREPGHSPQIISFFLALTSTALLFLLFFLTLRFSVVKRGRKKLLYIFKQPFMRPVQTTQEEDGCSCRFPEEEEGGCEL
Described as above. Here is the method: as §1

For experiment [6], the target named is T6, Human CD137 (TNR9_Human) (human, UniProt Q07011 24-255).
T6 construct: Full-length human CD137 expressed on HEK293T-17, NF-kB/293/GFP-Luc or K562 cells, or native on T cells; also called hCD137 wt; 4-1BB
T6 sequence (Q07011 24-255): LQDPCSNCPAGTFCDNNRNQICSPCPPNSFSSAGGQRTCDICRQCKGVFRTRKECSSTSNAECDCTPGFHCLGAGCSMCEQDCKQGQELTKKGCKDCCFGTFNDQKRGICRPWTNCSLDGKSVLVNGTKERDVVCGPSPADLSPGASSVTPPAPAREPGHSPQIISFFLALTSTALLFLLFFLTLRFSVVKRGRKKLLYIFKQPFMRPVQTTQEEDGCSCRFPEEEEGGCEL
The experiment can be described thus: flow cytometry, HEK293-T17 cells transiently transfected with human CD137, antibody at 1 µg/mL, APC-labeled F(ab')2 secondary. Here is the method:
FIG. 4: Binding of CD137 antibody clones to CD137 shuffle constructs expressed on HEK293-T17 cells. HEK293-T17 cells were transfected with the CD137 shuffle constructs, and with human CD137 (hCD137 wt), African elephant of wild boar CD137, as indicated. Binding of the different CD137 antibody clones to these constructs expressed on HEK293-T17 cells was measured by flow cytometry. Staining with polyclonal anti-CD137 antibody is shown as a control.
as §1

The next experiment addresses Human CD40 (human, UniProt P25942 21-277). In words: cell-based or functional assay.
The target in experiment [7] is T6, Human CD137 (TNR9_Human). The experiment can be described thus: cell-based or functional assay.

Human CD40, sequence (P25942 21-277): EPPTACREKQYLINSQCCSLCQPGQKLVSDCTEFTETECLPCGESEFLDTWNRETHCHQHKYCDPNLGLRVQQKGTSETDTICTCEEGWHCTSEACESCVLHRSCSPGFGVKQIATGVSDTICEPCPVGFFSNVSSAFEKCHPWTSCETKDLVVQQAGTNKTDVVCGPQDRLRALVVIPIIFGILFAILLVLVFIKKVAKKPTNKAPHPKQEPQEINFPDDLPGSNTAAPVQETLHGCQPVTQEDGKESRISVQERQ

B1: CD137 antibody clone 001 (rabbit) (antibody, human IgG1, kappa, V domains shown)
VH: QSVEESGGRLVTPGTPLTLTCTVSGFSLSSYAVSWVRQAPGKGLEWIGVIWNNGATHYATWAKGRFTISKASTTVDLKVTSPTTEDTATYFCARSANDAWSTYSDLWGQGTLVTVSS
VL: DIVMTQTPASVEAAVGGTVTIKCQASQTITNYLSWYQQKPGQPPKLLIYKASTLTSGVSSRFKGSGSGTEFTLTISDLESDDAATYYCQNYYYGSSSGYGFVFGGGTEVVVKR
notes: also called Clone 1; CD137 clone 001
With B1, the binding result (in experiment [1]; in experiment [2]; in experiment [3]; in experiment [4]; in experiment [5]; in the experiment with Human CD137 (TNR9_Human) [6]) was “binds” in each case.

B2: CD40-001-FEALxCD137-003-FEAR (bispecific antibody, human IgG1, kappa)
heavy 1: EVQLQQSGPDLVKPGASVKISCKTSGYTFTEYIMHWVKQSHGKSLEWIGGIIPNNGGTSYNQKFKDKATMTVDKSSSTGYMELRSLTSEDSAVYYCTRREVYGRNYYALDYWGQGTLVTVSSASTKGPSVFPLAPSSKSTSGGTAALGCLVKDYFPEPVTVSWNSGALTSGVHTFPAVLQSSGLYSLSSVVTVPSSSLGTQTYICNVNHKPSNTKVDKRVEPKSCDKTHTCPPCPAPEFEGGPSVFLFPPKPKDTLMISRTPEVTCVVVAVSHEDPEVKFNWYVDGVEVHNAKTKPREEQYNSTYRVVSVLTVLHQDWLNGKEYKCKVSNKALPAPIEKTISKAKGQPREPQVYTLPPSREEMTKNQVSLTCLVKGFYPSDIAVEWESNGQPENNYKTTPPVLDSDGSFLLYSKLTVDKSRWQQGNVFSCSVMHEALHNHYTQKSLSLSPGK
light 1: DIQMTQTTSSLSASLGDRVTITCSASQGINNYLNWYQQKPDGTVKLLIYYTSSLHSGVPSRFSGSGSGTDYSLTISNLEPEDIATYYCQQYSNLPYTFGGGTKLEIKRTVAAPSVFIFPPSDEQLKSGTASVVCLLNNFYPREAKVQWKVDNALQSGNSQESVTEQDSKDSTYSLSSTLTLSKADYEKHKVYACEVTHQGLSSPVTKSFNRGEC
heavy 2: QSVEESGGRLVTPGTPLTLTCTASGFTISSYHMIWVRQAPGEGLEWIGDIYGGTATTDYASWAKGRFTISKTSTTVDLKMTSLTTEDTATYFCARARYSGGSYANYVFNLWGQGTLVTVSSASTKGPSVFPLAPSSKSTSGGTAALGCLVKDYFPEPVTVSWNSGALTSGVHTFPAVLQSSGLYSLSSVVTVPSSSLGTQTYICNVNHKPSNTKVDKRVEPKSCDKTHTCPPCPAPEFEGGPSVFLFPPKPKDTLMISRTPEVTCVVVAVSHEDPEVKFNWYVDGVEVHNAKTKPREEQYNSTYRVVSVLTVLHQDWLNGKEYKCKVSNKALPAPIEKTISKAKGQPREPQVYTLPPSREEMTKNQVSLTCLVKGFYPSDIAVEWESNGQPENNYKTTPPVLDSDGSFFLYSRLTVDKSRWQQGNVFSCSVMHEALHNHYTQKSLSLSPGK
light 2: DIVMTQTPASVEAAVGGTVTIKCQASQSISSYLAWYQQKPGQPPKLLIYRTSTLESGVPSRFKGSGSGTEFTLTISDLESADAATYYCQGYDWSSSNRYDNTFGGGTEVVVKRTVAAPSVFIFPPSDEQLKSGTASVVCLLNNFYPREAKVQWKVDNALQSGNSQESVTEQDSKDSTYSLSSTLTLSKADYEKHKVYACEVTHQGLSSPVTKSFNRGEC
B2: in the experiment with Human CD40, the “luciferase activity (RLU) of NF-KB/293/GFP-Luc cells transduced with CD40, incubated with K562_CD137” value was ~100 ng/mL. In addition, in the experiment with Human CD137 (TNR9_Human) [7], the “luciferase activity (RLU) of NF-KB/293/GFP-Luc cells transduced with CD137, incubated with K562_CD40” value is ~100 ng/mL.

B3: CD40-001-FEALxCD137-004-FEAR (bispecific antibody, human IgG1, kappa)
heavy 1: EVQLQQSGPDLVKPGASVKISCKTSGYTFTEYIMHWVKQSHGKSLEWIGGIIPNNGGTSYNQKFKDKATMTVDKSSSTGYMELRSLTSEDSAVYYCTRREVYGRNYYALDYWGQGTLVTVSSASTKGPSVFPLAPSSKSTSGGTAALGCLVKDYFPEPVTVSWNSGALTSGVHTFPAVLQSSGLYSLSSVVTVPSSSLGTQTYICNVNHKPSNTKVDKRVEPKSCDKTHTCPPCPAPEFEGGPSVFLFPPKPKDTLMISRTPEVTCVVVAVSHEDPEVKFNWYVDGVEVHNAKTKPREEQYNSTYRVVSVLTVLHQDWLNGKEYKCKVSNKALPAPIEKTISKAKGQPREPQVYTLPPSREEMTKNQVSLTCLVKGFYPSDIAVEWESNGQPENNYKTTPPVLDSDGSFLLYSKLTVDKSRWQQGNVFSCSVMHEALHNHYTQKSLSLSPGK
light 1: DIQMTQTTSSLSASLGDRVTITCSASQGINNYLNWYQQKPDGTVKLLIYYTSSLHSGVPSRFSGSGSGTDYSLTISNLEPEDIATYYCQQYSNLPYTFGGGTKLEIKRTVAAPSVFIFPPSDEQLKSGTASVVCLLNNFYPREAKVQWKVDNALQSGNSQESVTEQDSKDSTYSLSSTLTLSKADYEKHKVYACEVTHQGLSSPVTKSFNRGEC
heavy 2: QSLEESGGRLVTPGTPLTLTCTASGFSLSRYDMSWVRQAPGKGLEYIGVISSSGGTNYANWAKGRFTISKTSTTVDLKITSPTTEDTATYFCAREGDYWDFNLWGPGTLVTVSSASTKGPSVFPLAPSSKSTSGGTAALGCLVKDYFPEPVTVSWNSGALTSGVHTFPAVLQSSGLYSLSSVVTVPSSSLGTQTYICNVNHKPSNTKVDKRVEPKSCDKTHTCPPCPAPEFEGGPSVFLFPPKPKDTLMISRTPEVTCVVVAVSHEDPEVKFNWYVDGVEVHNAKTKPREEQYNSTYRVVSVLTVLHQDWLNGKEYKCKVSNKALPAPIEKTISKAKGQPREPQVYTLPPSREEMTKNQVSLTCLVKGFYPSDIAVEWESNGQPENNYKTTPPVLDSDGSFFLYSRLTVDKSRWQQGNVFSCSVMHEALHNHYTQKSLSLSPGK
light 2: AQVLTQTPSSVSAAVGGTVTINCQASQSISNLLAWYQQKPGQPPKLLIYGASTLASGVPSRFSGSGSGTEFTLTISDLESDDAATYYCAGGFPGLDTVAAFGGGTEAVVTRTVAAPSVFIFPPSDEQLKSGTASVVCLLNNFYPREAKVQWKVDNALQSGNSQESVTEQDSKDSTYSLSSTLTLSKADYEKHKVYACEVTHQGLSSPVTKSFNRGEC
Turning to B3, in the experiment with Human CD40, the “luciferase activity (RLU) of NF-KB/293/GFP-Luc cells transduced with CD40, incubated with K562_CD137” value was ~100 ng/mL. Also, in the experiment with Human CD137 (TNR9_Human) [7], the “luciferase activity (RLU) of NF-KB/293/GFP-Luc cells transduced with CD137, incubated with K562_CD40” value is ~100 ng/mL.
